The target in assay [1] is T1, full-length human GIPR with an N-terminal FLAG tag (human, UniProt P48546 22-466).
T1 sequence (looked up): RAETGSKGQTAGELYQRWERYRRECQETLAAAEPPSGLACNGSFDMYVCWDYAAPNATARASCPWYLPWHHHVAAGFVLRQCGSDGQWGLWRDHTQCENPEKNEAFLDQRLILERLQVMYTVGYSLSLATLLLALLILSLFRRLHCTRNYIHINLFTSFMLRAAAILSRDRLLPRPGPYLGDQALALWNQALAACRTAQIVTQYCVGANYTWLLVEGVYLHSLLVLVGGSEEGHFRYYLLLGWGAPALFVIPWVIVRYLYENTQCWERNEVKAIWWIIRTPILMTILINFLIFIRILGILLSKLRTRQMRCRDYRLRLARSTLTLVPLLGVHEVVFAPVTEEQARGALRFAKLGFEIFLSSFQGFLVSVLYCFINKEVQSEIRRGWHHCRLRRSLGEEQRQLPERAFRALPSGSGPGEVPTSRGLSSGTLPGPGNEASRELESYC
In words: cell-based or functional assay.

Assay [2] addresses full-length human GLP-1R with an N-terminal FLAG tag (human, UniProt P43220 24-463). In words: cell-based or functional assay.

Starred links: 1 amine or outer side, 2 acyl side, 3 side chain; linkers in the order of their positions; H or OH if unused. Non-standard residues stand in square brackets, D forms with d. Groups on a side chain read outwards from the residue. No end group written: not given here. *: point of attachment. 2OEGgEgE‑C18 diacid = O=C(O)CCCCCCCCCCCCCCCCC(=O)N[C@@H](CCC(=O)N[C@@H](CCC(=O)NCCOCCOCC(=O)NCCOCCOCC(=O)*)C(=O)O)C(=O)O; C20 diacid = O=C(O)CCCCCCCCCCCCCCCCCCC(=O)*; C18 diacid = O=C(O)CCCCCCCCCCCCCCCCC(=O)*; C17 diacid = O=C(O)CCCCCCCCCCCCCCCC(=O)*; γGlu = O=C(O)[C@H](CCC(=O)[*:2])N[*:1]; NMeY = CN[C@@H](Cc1ccc(O)cc1)C(=O)O; AEEA = NCCOCCOCC(=O)O; Aib = CC(C)(N)C(=O)O

The results in this text go back to patent publication US20230143604A1, “QW DOSING OF GIP RECEPTOR AGONIST PEPTIDE COMPOUNDS AND USES THEREOF” (TAKEDA PHARMACEUTICAL COMPANY LIMITED, priority 2020, published 2023).

In the case of [NMeY][Aib]EGTFISDYSI[Aib]LDR[Aib]K([2OEGgEgE-C18 diacid])Q[Aib]DFVNWLLAQRG-OH [Compound No. 73], in assay [1], the “Human GIPR cAMP EC50, HEK293T” value came out at 0.0003 nM. Moreover, the “Human GLP1R cAMP EC50, HEK293T” value in assay [2] turned out to be 363 nM.
As to YXEGTFISDYSIXLDSXAQXDFVNWLLAQKG (N-methyl Tyr 1; Aib at 2,13,20; Lys(G5-C18 diacid) at 17; C-terminal OH) [Compound No. 77], the “Human GIPR cAMP EC50, HEK293T” value in assay [1] came to 0.0003 nM. The “Human GLP1R cAMP EC50, HEK293T” value in assay [2] was found to be 17 nM.
Take [NMeY][Aib]EGTFISDYSI[Aib]LDR[Aib]AQ[Aib]K([2OEGgEgE-C20 diacid])FVNWLLAQKG-OH [Compound No. 65]: the “Human GIPR cAMP EC50, HEK293T” value in assay [1] is 0.001 nM. Moreover, the “Human GLP1R cAMP EC50, HEK293T” value in assay [2] came to 40.7 nM.
The matching figures for [NMeY][Aib]EGTFISDYSI[Aib]LDR[Aib]AQ[Aib]NFVNWLLAQK([2OEGgEgE-C20 diacid])PSSGAPPPS-NH2 [Compound No. 69]: 0.0008 nM and 102 nM.

B1: Compound No. 61 (peptide)
peptide: [NMeY][Aib]EGTFISDYSIALDR[Aib]AQ[Aib]DFVNWLLAQK(2OEGgEgE‑C18 diacid)G-OH
modifications: N-terminus assumed
SMILES: CC[C@H](C)[C@H](NC(=O)[C@H](CO)NC(=O)[C@H](Cc1ccc(O)cc1)NC(=O)[C@H](CC(=O)O)NC(=O)[C@H](CO)NC(=O)[C@@H](NC(=O)[C@H](Cc1ccccc1)NC(=O)[C@@H](NC(=O)CNC(=O)[C@H](CCC(=O)O)NC(=O)C(C)(C)NC(=O)[C@H](Cc1ccc(O)cc1)NC)[C@@H](C)O)[C@@H](C)CC)C(=O)N[C@@H](C)C(=O)N[C@@H](CC(C)C)C(=O)N[C@@H](CC(=O)O)C(=O)N[C@@H](CCCNC(=N)N)C(=O)NC(C)(C)C(=O)N[C@@H](C)C(=O)N[C@@H](CCC(N)=O)C(=O)NC(C)(C)C(=O)N[C@@H](CC(=O)O)C(=O)N[C@@H](Cc1ccccc1)C(=O)N[C@H](C(=O)N[C@@H](CC(N)=O)C(=O)N[C@@H](Cc1c[nH]c2ccccc12)C(=O)N[C@@H](CC(C)C)C(=O)N[C@@H](CC(C)C)C(=O)N[C@@H](C)C(=O)N[C@@H](CCC(N)=O)C(=O)N[C@@H](CCCCNC(=O)COCCOCCNC(=O)COCCOCCNC(=O)CC[C@H](NC(=O)CC[C@H](NC(=O)CCCCCCCCCCCCCCCCC(=O)O)C(=O)O)C(=O)O)C(=O)NCC(=O)O)C(C)C
As for B1, in assay [1], the “Human GIPR cAMP EC50, HEK293T” value stood at 0.0007 nM. For the same molecule, in assay [2], the “Human GLP1R cAMP EC50, HEK293T” value is > 1000 nM.
The matching figures for [NMeY][Aib]EGTFISDYSIAK([2OEGgEgE-C17 diacid])DR[Aib]AQ[Aib]NFVNWLLAQR-OH [Compound No. 7]: 0.0004 nM and 589 nM.
Taken in the same sequence, the figures for [NMeY][Aib]EGTFISDYSIALDR[Aib]AQ[Aib]K([2OEGgEgE-C18 diacid])FVNWLLAQSPG-OH [Compound No. 86] were 0.0003 nM and 58.9 nM.
The matching figures for YXEGTFISDYSIAXDRXAQXDFVNWLLAQRG (N-methyl Tyr 1; Aib at 2,17,20; Lys(G5-C18 diacid) at 14; C-terminal OH) [Compound No. 63]: 0.0002 nM and 75.9 nM.
YXEGTFISDYSIXLDSXAQXDFVNWLLAQRG (N-methyl Tyr 1; Aib at 2,13,20; Lys(G6-C18 diacid) at 17; C-terminal OH) [Compound No. 64]: the “Human GIPR cAMP EC50, HEK293T” value in assay [1] was found to be 0.0002 nM. Besides, in assay [2], the “Human GLP1R cAMP EC50, HEK293T” value was 110 nM.
Taken in the same sequence, the figures for YXEGTFISDYSIAXDKXAQXDFVNWLLAQKG (N-methyl Tyr 1; Aib at 2,17,20; Lys(G5-C18 diacid) at 14; C-terminal OH) [Compound No. 76] were 0.0006 nM and 28.8 nM.
Taken in the same sequence, the figures for YXEGTFISDYSIALDSXAQXDFVNWLLAQKG (N-methyl Tyr 1; Aib at 2,20; Lys(G5-C18 diacid) at 17; C-terminal OH) [Compound No. 78] were 0.0003 nM and 26.9 nM.
The matching figures for YXEGTFISDYSIAXDRXAQXDFVNWLLAQQG (N-methyl Tyr 1; Aib at 2,17,20; Lys(G5-C18 diacid) at 14; C-terminal OH) [Compound No. 82]: 0.0003 nM and 17.4 nM.
As for [NMeY][Aib]EGTFISDYSIAK([G4gE-C18 diacid])DR[Aib]AQ[Aib]DFVNWLLAQKG-OH [Compound No. 80], the “Human GIPR cAMP EC50, HEK293T” value in assay [1] was found to be 0.0003 nM. The “Human GLP1R cAMP EC50, HEK293T” value in assay [2] was 115 nM.
The matching figures for [NMeY][Aib]EGTFISDYSI[Aib]LDR[Aib]AQ[Aib]K([2OEGgEgE-C18 diacid])FVNWLLAQSPSSGAPPPS-NH2 [Compound No. 90]: 0.0005 nM and 72.4 nM.

B2: Compound No. 62 (peptide)
peptide: [NMeY][Aib]EGTFISDYSI[Aib]LDR[Aib]AQ[Aib]DFVNWLLAK(2OEGgEgE‑C18 diacid)RG-OH
modifications: N-terminus assumed
SMILES: CC[C@H](C)[C@H](NC(=O)[C@H](Cc1ccccc1)NC(=O)[C@@H](NC(=O)CNC(=O)[C@H](CCC(=O)O)NC(=O)C(C)(C)NC(=O)[C@H](Cc1ccc(O)cc1)NC)[C@@H](C)O)C(=O)N[C@@H](CO)C(=O)N[C@@H](CC(=O)O)C(=O)N[C@@H](Cc1ccc(O)cc1)C(=O)N[C@@H](CO)C(=O)N[C@H](C(=O)NC(C)(C)C(=O)N[C@@H](CC(C)C)C(=O)N[C@@H](CC(=O)O)C(=O)N[C@@H](CCCNC(=N)N)C(=O)NC(C)(C)C(=O)N[C@@H](C)C(=O)N[C@@H](CCC(N)=O)C(=O)NC(C)(C)C(=O)N[C@@H](CC(=O)O)C(=O)N[C@@H](Cc1ccccc1)C(=O)N[C@H](C(=O)N[C@@H](CC(N)=O)C(=O)N[C@@H](Cc1c[nH]c2ccccc12)C(=O)N[C@@H](CC(C)C)C(=O)N[C@@H](CC(C)C)C(=O)N[C@@H](C)C(=O)N[C@@H](CCCCNC(=O)COCCOCCNC(=O)COCCOCCNC(=O)CC[C@H](NC(=O)CC[C@H](NC(=O)CCCCCCCCCCCCCCCCC(=O)O)C(=O)O)C(=O)O)C(=O)N[C@@H](CCCNC(=N)N)C(=O)NCC(=O)O)C(C)C)[C@@H](C)CC
Consider B2, for which the “Human GIPR cAMP EC50, HEK293T” value in assay [1] was determined as 0.0004 nM. Besides, in assay [2], the “Human GLP1R cAMP EC50, HEK293T” value is > 1000 nM.
As to [NMeY][Aib]EGTFISDYSI[Aib]LDR[Aib]AQ[Aib]K([2OEGgEgE-C18 diacid])FVNWLLAQSPG-OH [Compound No. 85], the “Human GIPR cAMP EC50, HEK293T” value in assay [1] came out at 0.0004 nM. Also, the “Human GLP1R cAMP EC50, HEK293T” value in assay [2] was determined as 41.7 nM.
Taken in the same sequence, the figures for YXEGTFISDYSIAXDRXAQXDFVNWLLAQSPG (N-methyl Tyr 1; Aib at 2,17,20; Lys(G5-C18 diacid) at 14; C-terminal OH) [Compound No. 84] were 0.0002 nM and 58.9 nM.
As to YXEGTFISDYSIXLDRXAQXDFVNWLLAQSPG (N-methyl Tyr 1; Aib at 2,13,20; Lys(G5-C18 diacid) at 17; C-terminal OH) [Compound No. 88], the “Human GIPR cAMP EC50, HEK293T” value in assay [1] worked out at 0.0004 nM. The “Human GLP1R cAMP EC50, HEK293T” value in assay [2] was determined as 13.5 nM.
Consider [NMeY][Aib]EGTFISDYSI[Aib]LDR[Aib]K([2OEGgEgE-C18 diacid])Q[Aib]DFVNWLLAQSPG-OH [Compound No. 87], for which the “Human GIPR cAMP EC50, HEK293T” value in assay [1] was 0.0004 nM. Besides, in assay [2], the “Human GLP1R cAMP EC50, HEK293T” value was > 1000 nM.
With [NMeY][Aib]EGTFISDYSIALDR[Aib]K([2OEGgEgE-C20 diacid])Q[Aib]NFVNWLLAQSPSSGAPPPS-NH2 [Compound No. 68], the “Human GIPR cAMP EC50, HEK293T” value in assay [1] came out at 0.0007 nM. Also, in assay [2], the “Human GLP1R cAMP EC50, HEK293T” value is > 1000 nM.
With [NMeY][Aib]EGTFISDYSI[Aib]LDR[Aib]K([2OEGgEgE-C18 diacid])Q[Aib]NFVNWLLAQRG-OH [Compound No. 74], the “Human GIPR cAMP EC50, HEK293T” value in assay [1] was determined as 0.0005 nM. Besides, the “Human GLP1R cAMP EC50, HEK293T” value in assay [2] turned out to be 468 nM.
Consider YXEGTFISDYSIAXDRXAQXDFVNWLLAQRPSSG (N-methyl Tyr 1; Aib at 2,17,20; Lys(G5-C18 diacid) at 14; C-terminal OH) [Compound No. 70], for which the “Human GIPR cAMP EC50, HEK293T” value in assay [1] was found to be 0.0002 nM. Also, the “Human GLP1R cAMP EC50, HEK293T” value in assay [2] stood at 43.7 nM.
The matching figures for [NMeY][Aib]EGTFISDYSI[Aib]LDR[Aib]AQ[Aib]K([2OEGgEgE-C18 diacid])FVNWLLAQRPSSGAPPPS-NH2 [Compound No. 89]: 0.0004 nM and 42.7 nM.
Taken in the same sequence, the figures for [NMeY][Aib]EGTFISDYSI[Aib]LDR[Aib]AQ[Aib]K([2OEGgEgE-C18 diacid])FVNWLLAQKG-OH [Compound No. 66] were 0.0008 nM and 32.4 nM.
The matching figures for [NMeY][Aib]EGTFISDYSI[Aib]LDR[Aib]AQ[Aib]K([AEEA-AEEA-γGlu-C18 diacid])FVNWLLAQSPSSGAPPPS-NH2 [Compound No. 91]: 0.0005 nM and 30.9 nM.
[NMeY][Aib]EGTFISDYSIAKDR[Aib]AQ[Aib]NFVNWLLAQK-NH2 (not fully specified (residue 14)) [Compound No. 6]: in assay [1], the “Human GIPR cAMP EC50, HEK293T” value stood at 0.0004 nM. Further, in assay [2], the “Human GLP1R cAMP EC50, HEK293T” value came to 83.2 nM.
